Here are results for three substances from publication PMC3580866.

The target of assay [1] is human SLBP (hSLBP), Stem-Loop Binding Protein RNA binding domain (RBD/RPD) (UniProt Q14493). The assay is described as follows: mass spectrometry of oligomer peaks. Conditions: reference: bacterially expressed unphosphorylated RBD; sites T171.
Assay [2] addresses human SLBP RNA binding domain, phosphorylated at Thr171, baculovirus expressed (human). The assay is described as follows: electrospray mass spectrometry.
The target in assay [3] is human SLBP RNA binding domain, unphosphorylated, bacterially expressed (human). Kind of assay: MALDI-TOF mass spectrometry.

For “human SLBP (hSLBP), Stem-Loop Binding Protein RNA binding domain (RBD/RPD) (from UniProt Q14493) baculovirus-expressed phosphorylated RBD”, the “other: percent of mass as dimer” value in assay [1] was “weaker; reference 35.3”.

In assay [2], “human SLBP RNA binding domain, phosphorylated at Thr171, baculovirus expressed (domain or fragment)” returned a percent of the mass spectrum as dimer of 5.6%, a percent of the mass spectrum as tetramer of 3.8% and a percent of the mass spectrum as trimer of 3.9%.

In assay [3], “human SLBP RNA binding domain, unphosphorylated, bacterially expressed (domain or fragment)” yielded a percent of the mass spectrum as dimer of 35.3%, a percent of the mass spectrum as hexamer of 9.7%, a percent of the mass spectrum as tetramer of 12.4% and a percent of the mass spectrum as trimer of 9.9%.
